Source: paper PMC3373015

Tests used:
[1] = target: T1, Glu38 (UniProt position 120, TFRLLEVDTPE); test: NMR; details: 298 K; 100 mM KCl, 0.5 mM NaN3 (no buffer stated); folded, no ligand
[2] = target: His8 (UniProt position 90, STKKLHKEPAT); details: folded Δ+PHS nuclease; cited from earlier work
[3] = target: Glu101 (UniProt position 183, GKMVNEALVRQ); test: NMR
[4] = target: Glu67 (UniProt position 149, TKKMVENAKKI); test: NMR
[5] = target: Glu135 (UniProt position 217, AQAKKEKLNIW); test: NMR
[6] = target: Glu142 (UniProt position 224, LNIWSEDNADS); test: NMR
[7] = target: Asp77 (UniProt position 159, IEVEFDKGQRT); test: NMR
[8] = target: Glu57 (UniProt position 139, EKYGPEASAFT); test: NMR
[9] = target: Asp95 (UniProt position 177, AYIYADGKMVN); test: NMR
[10] = target: Glu129 (UniProt position 211, LLRKAEAQAKK); test: NMR
[11] = target: Asp19 (UniProt position 101, LIKAIDGDTVK); test: NMR
[12] = target: Glu52 (UniProt position 134, PKKFNEKYGPE); test: NMR
[13] = target: Asp83 (UniProt position 165, KGQRTDKYGRG); test: NMR
[14] = target: Glu122 (UniProt position 204, GNNTHEQLLRK); test: NMR
[15] = target: Asp143 (UniProt position 225, NIWSEDNADSG); test: NMR
[16] = target: Glu73 (UniProt position 155, NAKKIEVEFDK); test: NMR
[17] = target: Glu75 (UniProt position 157, KKIEVEFDKGQ); test: NMR
[18] = target: Asp146 (UniProt position 228, SEDNADSGQ--); test: NMR
[19] = target: Asp21 (UniProt position 103, KAIDGDTVKLM); test: NMR
[20] = target: Glu43 (UniProt position 125, LVDTPETKHPK); test: NMR; details: folded Δ+PHS nuclease; cited from earlier work
[21] = target: Asp40 (UniProt position 122, RLLLVDTPETK); test: NMR; details: folded Δ+PHS nuclease; cited from earlier work
[22] = target: Glu10 (UniProt position 92, KKLHKEPATLI); test: NMR
[23] = target: T2, Asp38 (UniProt position 120, TFRLLDVDTPE); test: stability; details: folded/unfolded equilibrium, no ligand
[24] = target: T2, Asp38; test: NMR; details: 298 K; 100 mM KCl, 0.5 mM NaN3 (no buffer stated); folded, no ligand
[25] = target: T1, Glu38; test: stability; details: folded/unfolded equilibrium, no ligand
[26] = target: Asp40 (UniProt position 122, RLLEVDTPETK); test: NMR; details: 298 K; 100 mM KCl, 0.5 mM NaN3 (no buffer stated); folded, no ligand
[27] = target: Glu43 (UniProt position 125, EVDTPETKHPK); test: NMR; details: 298 K; 100 mM KCl, 0.5 mM NaN3 (no buffer stated); folded, no ligand
[28] = target: Lys38 (UniProt position 120, TFRLLKVDTPE); test: stability; details: cited from earlier work
[29] = target: Asp40 (UniProt position 122, RLLKVDTPETK); test: NMR; details: 298 K; 100 mM KCl, 0.5 mM NaN3 (no buffer stated); folded, no ligand
[30] = target: Glu43 (UniProt position 125, KVDTPETKHPK); test: NMR; details: 298 K; 100 mM KCl, 0.5 mM NaN3 (no buffer stated); folded, no ligand
[31] = folded Δ+PHS nuclease, cited from earlier work
[32] = 298 K, 100 mM KCl, 0.5 mM NaN3 (no buffer stated), folded, no ligand

“Staphylococcal nuclease Δ+PHS/L38E/R126Q (Staphylococcus aureus; G50F;V51N;P117G;H124L;S128A;del44-49;L38E;R126Q)” showed a pKa [1] of 7.2.

In the case of “Staphylococcal nuclease Δ+PHS/L38E/E122Q (Staphylococcus aureus; G50F;V51N;P117G;H124L;S128A;del44-49;L38E;E122Q)”, the pKa [1] is reported as 6.2.

Substance “Staphylococcal nuclease Δ+PHS/L38E/D77N (Staphylococcus aureus; G50F;V51N;P117G;H124L;S128A;del44-49;L38E;D77N)” has a pKa [1] of 6.1.

Substance “Staphylococcal nuclease Δ+PHS/L38E/E122D (Staphylococcus aureus; G50F;V51N;P117G;H124L;S128A;del44-49;L38E;E122D)” has a pKa [1] of 7.4.

For “Staphylococcal nuclease, Δ+PHS variant (Staphylococcus aureus; G50F;V51N;P117G;H124L;S128A;del44-49)”, the pKa [2] is listed as 6.5, the pKa [3, 31] is listed as 3.8 and the pKa [4, 31] is listed as 3.8. The pKa [5, 31] was 3.8, the pKa [6, 31] was 4.5 and the pKa [7, 31] was less than 2.5. For the same substance, the pKa [8, 31] was 3.5, the pKa [9, 31] was 2.2 and the pKa [10, 31] was 3.8. For the same substance, the pKa [11, 31] was 2.2, the pKa [12, 31] was 3.9 and the pKa [13, 31] was less than 2.5. The pKa [14, 31] was 3.9, the pKa [15, 31] was 3.8 and the pKa [16, 31] was 3.3. The pKa [17, 31] was 3.3, the pKa [18, 31] was 3.9 and the pKa [19, 31] was 6.5. For the same substance, the pKa [20] was 4.3, the pKa [21] was 3.9 and the pKa [22, 31] was 2.8.

In the case of “Staphylococcal nuclease Δ+PHS/L38D/E122Q (Staphylococcus aureus; G50F;V51N;P117G;H124L;S128A;del44-49;L38D;E122Q)”, the pKa [23] is reported as 6.9 +/- 0.3 and the pKa [24] is reported as 6.6.

In the case of “Staphylococcal nuclease Δ+PHS/L38E (Staphylococcus aureus; G50F;V51N;P117G;H124L;S128A;del44-49;L38E)”, the pKa [25] is reported as 7.0 +/- 0.3, the pKa [3, 32] is reported as 3.9 and the pKa [4, 32] is reported as 3.8. The pKa [5, 32] was 3.8, the pKa [26] was 3.9 and the pKa [27] was 4.4. For the same substance, the pKa [6, 32] was 4.5, the pKa [7, 32] was less than 2.5 and the pKa [8, 32] was 3.6. The pKa [9, 32] was 2.3, the pKa [10, 32] was 3.9 and the pKa [11, 32] was less than 2.5. For the same substance, the pKa [12, 32] was 4.0, the pKa [1] was 7.0 and the pKa [13, 32] was less than 2.5. The pKa [14, 32] was 3.8, the pKa [15, 32] was 3.8 and the pKa [16, 32] was 3.4. For the same substance, the pKa [17, 32] was 3.3, the pKa [18, 32] was 3.9 and the pKa [19, 32] was 6.6. The pKa [22, 32] was 3.1.

For “Staphylococcal nuclease Δ+PHS/L38K (Staphylococcus aureus; G50F;V51N;P117G;H124L;S128A;del44-49;L38K)”, the pKa [28] is listed as no less than 10.4, the pKa [29] is listed as 3.8 and the pKa [3, 32] is listed as 3.9. It also gave a pKa [4, 32] of 3.9, a pKa [5, 32] of 3.9 and a pKa [6, 32] of 4.6. It also gave a pKa [8, 32] of 3.6, a pKa [9, 32] of 2.1 and a pKa [10, 32] of 3.8. It also gave a pKa [11, 32] of less than 2.5, a pKa [12, 32] of 4.1 and a pKa [13, 32] of less than 2.5. The pKa [14, 32] was 3.9, the pKa [15, 32] was 4.0 and the pKa [16, 32] was 3.3. It also gave a pKa [18, 32] of 4.0, a pKa [19, 32] of 6.5 and a pKa [30] of 4.5. It also gave a pKa [22, 32] of 3.1.

In the case of “Staphylococcal nuclease Δ+PHS/L38D (Staphylococcus aureus; G50F;V51N;P117G;H124L;S128A;del44-49;L38D)”, the pKa [23] is reported as 6.8 +/- 0.3 and the pKa [24] is reported as 7.2.
